This note sets out measurements from article PMC10170137 (Nature Communications, 2023).

In one data set the target is T1, EcArgC (Escherichia coli, UniProt P11446).
T1 construct: gene argC
T1 sequence (P11446 1-334): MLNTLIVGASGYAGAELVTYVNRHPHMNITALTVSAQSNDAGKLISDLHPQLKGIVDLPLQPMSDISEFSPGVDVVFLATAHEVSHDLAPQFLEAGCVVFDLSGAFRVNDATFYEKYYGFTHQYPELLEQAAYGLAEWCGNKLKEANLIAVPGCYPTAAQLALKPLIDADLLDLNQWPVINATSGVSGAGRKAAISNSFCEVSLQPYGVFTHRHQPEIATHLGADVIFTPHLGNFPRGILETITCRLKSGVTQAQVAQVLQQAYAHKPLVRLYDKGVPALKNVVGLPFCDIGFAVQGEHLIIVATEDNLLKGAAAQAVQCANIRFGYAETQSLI
Put plainly: Nash assay of formaldehyde; coupled to EcAckA. It is filed as biochemical. The note with it: formyl phosphate made in situ by 2 µM EcAckA from 50 mM ammonium formate and 5 mM ATP; 250 µM NAD(P)H, 1 mM CoA, 10 mM MgCl2, MOPS-KOH pH 7.0, 30 °C.

Another data set deals with T2, EcGapA (Escherichia coli, UniProt P0A9B2).
T2 construct: gene gapA
Put plainly: Nash assay of formaldehyde; coupled to EcAckA. The note with it: formyl phosphate made in situ by 2 µM EcAckA from 50 mM ammonium formate and 5 mM ATP; 250 µM NAD(P)H, 1 mM CoA, 10 mM MgCl2, MOPS-KOH pH 7.0, 30 °C. It is filed as biochemical.

In a further data set the target is T3, EcProA (Escherichia coli, UniProt P07004).
T3 construct: gene proA
T3 sequence (P07004 1-417): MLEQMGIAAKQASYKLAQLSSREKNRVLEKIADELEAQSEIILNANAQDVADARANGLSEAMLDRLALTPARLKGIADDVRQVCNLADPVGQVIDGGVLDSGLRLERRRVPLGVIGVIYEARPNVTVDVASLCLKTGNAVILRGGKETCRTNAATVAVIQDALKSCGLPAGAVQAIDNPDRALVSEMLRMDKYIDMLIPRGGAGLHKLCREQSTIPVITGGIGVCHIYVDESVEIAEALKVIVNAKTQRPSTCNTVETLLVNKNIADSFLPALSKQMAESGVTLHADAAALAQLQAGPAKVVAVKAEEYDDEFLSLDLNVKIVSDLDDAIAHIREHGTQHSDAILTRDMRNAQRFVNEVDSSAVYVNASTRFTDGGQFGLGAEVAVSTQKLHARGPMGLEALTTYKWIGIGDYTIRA
Kind of data set: Nash assay of formaldehyde; coupled to EcAckA. Format: biochemical. The conditions noted are these: formyl phosphate made in situ by 2 µM EcAckA from 50 mM ammonium formate and 5 mM ATP; 250 µM NAD(P)H, 1 mM CoA, 10 mM MgCl2, MOPS-KOH pH 7.0, 30 °C.

A further data set deals with T4, EcASD (Escherichia coli, UniProt P0A9Q9).
T4 construct: gene asd
T4 sequence (P0A9Q9 1-367): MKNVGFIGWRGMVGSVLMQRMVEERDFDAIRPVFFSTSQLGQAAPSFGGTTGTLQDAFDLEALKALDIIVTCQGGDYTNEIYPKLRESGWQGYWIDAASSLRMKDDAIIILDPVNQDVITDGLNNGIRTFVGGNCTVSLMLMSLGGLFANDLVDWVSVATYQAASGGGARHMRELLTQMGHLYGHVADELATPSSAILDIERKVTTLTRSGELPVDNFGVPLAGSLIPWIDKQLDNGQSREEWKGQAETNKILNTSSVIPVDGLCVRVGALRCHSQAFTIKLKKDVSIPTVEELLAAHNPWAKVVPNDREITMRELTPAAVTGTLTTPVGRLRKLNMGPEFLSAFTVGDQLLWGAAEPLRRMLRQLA
Put plainly: Nash assay of formaldehyde; coupled to EcAckA. Format: biochemical. The conditions noted are these: formyl phosphate made in situ by 2 µM EcAckA from 50 mM ammonium formate and 5 mM ATP; 250 µM NAD(P)H, 1 mM CoA, 10 mM MgCl2, MOPS-KOH pH 7.0, 30 °C.

The target in data set [1] is T5, DaArgC (Denitrovibrio acetiphilus, UniProt D4H3H4).
T5 construct: gene argC; dimer
T5 sequence (D4H3H4 1-334): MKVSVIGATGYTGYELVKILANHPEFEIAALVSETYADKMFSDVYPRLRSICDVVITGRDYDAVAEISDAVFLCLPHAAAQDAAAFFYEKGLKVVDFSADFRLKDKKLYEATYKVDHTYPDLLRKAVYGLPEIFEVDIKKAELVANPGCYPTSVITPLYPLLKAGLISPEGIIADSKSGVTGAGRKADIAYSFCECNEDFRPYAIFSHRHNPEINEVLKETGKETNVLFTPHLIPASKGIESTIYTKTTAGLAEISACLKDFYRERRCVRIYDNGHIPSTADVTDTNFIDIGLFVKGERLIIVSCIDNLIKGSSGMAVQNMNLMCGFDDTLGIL
Put plainly: Nash assay of formaldehyde, inhibition of formyl phosphate reductase activity; coupled to EcAckA. The note with it: read-out: N-acetyl-γ-glutamate / IC50. It is filed as biochemical. An excerpt: (§1) Nash assay of formaldehyde, inhibition of formyl phosphate reductase activity; coupled to EcAckA on DaArgC

The target in data set [2] is T6, DaArgC (Denitrovibrio acetiphilus, UniProt D4H3H4, G182V/L233I/S178V).
T6 construct: gene argC; dimer
The description is as above. Format: biochemical. The conditions noted are these: read-out: N-acetyl-γ-glutamate / IC50.
Excerpt: as §1

Substrate in data set [3]: NC(=O)C1=CN([C@@H]2O[C@H](COP(=O)(O)OP(=O)(O)OC[C@H]3O[C@@H](n4cnc5c(N)ncnc54)[C@H](OP(=O)(O)O)[C@@H]3O)[C@@H](O)[C@H]2O)C=CC1
Kind of data set: Nash assay of formaldehyde, fluorescence; coupled to EcAckA. Format: biochemical, Denitrovibrio acetiphilus. The conditions noted are these: formyl phosphate made in situ by 10 µM EcAckA from 500 mM ammonium formate and 5 mM ATP, 10 mM MgCl2, MOPS-KOH pH 7.0, 30 °C, varied: cofactor. An excerpt:
(§2) Nash assay of formaldehyde, fluorescence; coupled to EcAckA on DaArgC

Data set [4] concerns the molecule itself. Kind of data set: SEC; HiLoad 16/600 Superdex 200 pg in SEC buffer (75 mM KCl, 25 mM HEPES-KOH pH 7.8), loaded straight after Ni affinity purification, before crystallisation.
Substrate in data set [5]: NC(=O)C1=CN([C@@H]2O[C@H](COP(=O)(O)OP(=O)(O)OC[C@H]3O[C@@H](n4cnc5c(N)ncnc54)[C@H](O)[C@@H]3O)[C@@H](O)[C@H]2O)C=CC1
Kind of data set: Nash assay of formaldehyde, fluorescence; coupled to EcAckA. The note with it: formyl phosphate made in situ by 10 µM EcAckA from 250 mM ammonium formate and 5 mM ATP, 10 mM MgCl2, MOPS-KOH pH 7.0, 30 °C, varied: cofactor. Format: biochemical, Denitrovibrio acetiphilus.
Excerpt: as §2

Substrate in data set [6]: O=COP(=O)(O)O
Kind of data set: Nash assay of formaldehyde, initial slopes, synthetic formyl phosphate. Format: biochemical, Denitrovibrio acetiphilus. The conditions noted are these: 1 mM NADPH, 10 mM MgCl2, MOPS pH 7.0, 30 °C, freshly synthesized crude formyl phosphate. An excerpt: Nash assay of formaldehyde, initial slopes, synthetic formyl phosphate on […]

T2 sequence (P0A9B2 2-331): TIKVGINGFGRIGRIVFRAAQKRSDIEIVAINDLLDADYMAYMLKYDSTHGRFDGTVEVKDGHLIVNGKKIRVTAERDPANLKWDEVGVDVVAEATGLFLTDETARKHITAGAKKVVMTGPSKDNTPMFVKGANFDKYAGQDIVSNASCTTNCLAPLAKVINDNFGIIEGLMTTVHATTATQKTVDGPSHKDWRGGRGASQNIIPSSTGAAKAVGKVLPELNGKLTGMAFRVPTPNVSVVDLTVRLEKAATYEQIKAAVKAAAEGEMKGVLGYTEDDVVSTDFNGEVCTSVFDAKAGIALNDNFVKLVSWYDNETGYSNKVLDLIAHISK

As for `O=COP(=O)(O)O` [formyl phosphate], the “Nash assay of formaldehyde; coupled to EcAckA” value was “EcArgC and EcGapA performed best under the chosen conditions” on EcArgC; “EcArgC and EcGapA performed best under the chosen conditions” on EcGapA; “(EcASD, EcArgC, EcGapA, EcProA), we detected FPR activity in all cases” on EcProA; “(EcASD, EcArgC, EcGapA, EcProA), we detected FPR activity in all cases” at EcASD.

`CC(=O)N[C@@H](CCC(=O)O)C(=O)O` [N-acetyl-γ-glutamate]: the IC50 at DaArgC [1] was found to be 5.1 ± 1 mM; on DaArgC [2] it was 24.6 ± 7.9 mM.

B1: Denitrovibrio acetiphilus N-acetyl-γ-glutamyl phosphate reductase (DaArgC), wild type (enzyme)
chain: MKVSVIGATGYTGYELVKILANHPEFEIAALVSETYADKMFSDVYPRLRSICDVVITGRDYDAVAEISDAVFLCLPHAAAQDAAAFFYEKGLKVVDFSADFRLKDKKLYEATYKVDHTYPDLLRKAVYGLPEIFEVDIKKAELVANPGCYPTSVITPLYPLLKAGLISPEGIIADSKSGVTGAGRKADIAYSFCECNEDFRPYAIFSHRHNPEINEVLKETGKETNVLFTPHLIPASKGIESTIYTKTTAGLAEISACLKDFYRERRCVRIYDNGHIPSTADVTDTNFIDIGLFVKGERLIIVSCIDNLIKGSSGMAVQNMNLMCGFDDTLGIL
notes: N-acetyl-γ-glutamyl phosphate reductase (ArgC) of Denitrovibrio acetiphilus; also called WT DaArgC; Denitrovibrio acetiphilus N-acetyl-γ-glutamyl phosphate dehydrogenase; source: E. coli BL21 (DE3), purified (Ni-Sepharose HisTrap FF, Superdex 200 SEC)
Broadly, the Km is the concentration of substrate that gives half-maximal velocity. As usually defined, the kcat is the number of substrate molecules converted per active site and unit of time at saturation. By kcat/Km is commonly meant the second-order rate constant that governs catalysis at low substrate concentration. With B1, in data set [3], the Km is 160 ± 20 µM, the kcat was 0.66 ± 0.03 s⁻¹ and the kcat/Km turned out to be 4100 M⁻¹ s⁻¹. In addition, the binding result in [4] is reported as “binds”.

B2: DaArgC3, triple substitution variant (G182V, S178V, L233I) of Denitrovibrio acetiphilus N-acetyl-γ-glutamyl phosphate reductase (enzyme)
chain: MKVSVIGATGYTGYELVKILANHPEFEIAALVSETYADKMFSDVYPRLRSICDVVITGRDYDAVAEISDAVFLCLPHAAAQDAAAFFYEKGLKVVDFSADFRLKDKKLYEATYKVDHTYPDLLRKAVYGLPEIFEVDIKKAELVANPGCYPTSVITPLYPLLKAGLISPEGIIADSKVGVTVAGRKADIAYSFCECNEDFRPYAIFSHRHNPEINEVLKETGKETNVLFTPHIIPASKGIESTIYTKTTAGLAEISACLKDFYRERRCVRIYDNGHIPSTADVTDTNFIDIGLFVKGERLIIVSCIDNLIKGSSGMAVQNMNLMCGFDDTLGIL
notes: N-acetyl-γ-glutamyl phosphate reductase (ArgC) of Denitrovibrio acetiphilus with G182V, S178V and L233I; Found by iterative saturation mutagenesis of DaArgC; also called formyl phosphate reductase variant; source: E. coli BL21 (DE3), purified (Ni-Sepharose HisTrap FF, Superdex 200 SEC)
Regarding B2, the binding result in data set [4] was “binds”.

B3: DaArgC (Denitrovibrio acetiphilus DSM 12809; G182V) (protein)
chain: MKVSVIGATGYTGYELVKILANHPEFEIAALVSETYADKMFSDVYPRLRSICDVVITGRDYDAVAEISDAVFLCLPHAAAQDAAAFFYEKGLKVVDFSADFRLKDKKLYEATYKVDHTYPDLLRKAVYGLPEIFEVDIKKAELVANPGCYPTSVITPLYPLLKAGLISPEGIIADSKSGVTVAGRKADIAYSFCECNEDFRPYAIFSHRHNPEINEVLKETGKETNVLFTPHLIPASKGIESTIYTKTTAGLAEISACLKDFYRERRCVRIYDNGHIPSTADVTDTNFIDIGLFVKGERLIIVSCIDNLIKGSSGMAVQNMNLMCGFDDTLGIL
notes: dimer
As to B3, the values for the Km in [3], in data set [5] and in data set [6] were 40 ± 10 µM, 280 ± 50 µM and 31000 ± 7000 µM, respectively. Further, the kcat in [3] is 0.14 ± 0.02 s⁻¹; in data set [5] it was 0.08 ± 0.00 s⁻¹; in data set [6], 0.11 ± 0.01 s⁻¹. The kcat/Km came out at 3500 M⁻¹ s⁻¹ in data set [3], 280 M⁻¹ s⁻¹ in [5] and 2.4 M⁻¹ s⁻¹ in [6].

B4: DaArgC (Denitrovibrio acetiphilus DSM 12809; G182V/L233I/S178V) (protein)
chain: MKVSVIGATGYTGYELVKILANHPEFEIAALVSETYADKMFSDVYPRLRSICDVVITGRDYDAVAEISDAVFLCLPHAAAQDAAAFFYEKGLKVVDFSADFRLKDKKLYEATYKVDHTYPDLLRKAVYGLPEIFEVDIKKAELVANPGCYPTSVITPLYPLLKAGLISPEGIIADSKVGVTVAGRKADIAYSFCECNEDFRPYAIFSHRHNPEINEVLKETGKETNVLFTPHIIPASKGIESTIYTKTTAGLAEISACLKDFYRERRCVRIYDNGHIPSTADVTDTNFIDIGLFVKGERLIIVSCIDNLIKGSSGMAVQNMNLMCGFDDTLGIL
notes: dimer
As to B4, in data set [3], the Km was 50 ± 10 µM, the kcat worked out at 0.23 ± 0.02 s⁻¹ and the kcat/Km was found to be 4600 M⁻¹ s⁻¹. Moreover, in [5], the Km was 340 ± 50 µM, the kcat worked out at 0.09 ± 0.00 s⁻¹ and the kcat/Km was determined as 260 M⁻¹ s⁻¹. For the same molecule, in [6], the Km came to 18000 ± 7000 µM, the kcat is 0.12 ± 0.02 s⁻¹ and the kcat/Km turned out to be 4.6 M⁻¹ s⁻¹.

B5: DaArgC (Denitrovibrio acetiphilus DSM 12809; G182V/S178V) (protein)
chain: MKVSVIGATGYTGYELVKILANHPEFEIAALVSETYADKMFSDVYPRLRSICDVVITGRDYDAVAEISDAVFLCLPHAAAQDAAAFFYEKGLKVVDFSADFRLKDKKLYEATYKVDHTYPDLLRKAVYGLPEIFEVDIKKAELVANPGCYPTSVITPLYPLLKAGLISPEGIIADSKVGVTVAGRKADIAYSFCECNEDFRPYAIFSHRHNPEINEVLKETGKETNVLFTPHLIPASKGIESTIYTKTTAGLAEISACLKDFYRERRCVRIYDNGHIPSTADVTDTNFIDIGLFVKGERLIIVSCIDNLIKGSSGMAVQNMNLMCGFDDTLGIL
notes: dimer
On to B5, for which the Km in data set [3] came to 60 ± 20 µM; in [5], 300 ± 40 µM; in [6], 38000 ± 9000 µM. Moreover, the kcat in data set [3] was determined as 0.26 ± 0.03 s⁻¹; in data set [5] it was 0.12 ± 0.00 s⁻¹; in [6], 0.17 ± 0.02 s⁻¹. Also, the values for the catalytic efficiency (kcat/Km) in data set [3], in [5] and in [6] were 4300 M⁻¹ s⁻¹, 400 M⁻¹ s⁻¹ and 3.1 M⁻¹ s⁻¹, respectively.
